From paper PMC6817756

Key:
ME-47 = test: fluorescence polarization; conditions: FP: 10 mM Tris-HCl, 50 mM KCl, 1 mM EDTA, 5 mM MgCl2, 10 mM DTT, 2 nM DNA stock mixed 20 ul + 20 ul protein, 30 min, pH and temperature not stated; pulldown: …
[1] = target: Omomyc (recombinant, bacterially expressed) (UniProt P01106); test: SEC; size exclusion chromatography of purified Omomyc, data not shown
[2] = target: Omomyc (recombinant, bacterially expressed) (UniProt P01106); test: native gel or EMSA; native gel electrophoresis of purified recombinant Omomyc (the legend of Fig. 1A speaks of SDS-PAGE under nonreduced and reduced conditions)
[3] = target: Myc (human (endogenous in HCT116)) (UniProt P01106)
[4] = target: MYC bHLH peptide (in MYC/MAX);MAX bHLH peptide (in MYC/MAX) (;, UniProt P01106;P61244 365-454;22-103, |); test: fluorescence polarization; table heading: affinity; FP: 10 mM Tris-HCl, 50 mM KCl, 1 mM EDTA, 5 mM MgCl2, 10 mM DTT, 2 nM DNA stock mixed 20 ul + 20 ul protein, 30 min, pH and temperature not stated; pulldown: 50 mM Tris-HCl pH 7.5, 5% glycerol, 1.5 mM MgCl2, 150 mM NaCl, 1 mM DTT, IGEPAL, 4 C; conditions: tags: ;, copies: 1;1, blunt
[5] = target: T1, MAX bHLH peptide (MAX/MAX) (UniProt P61244 22-103); test: as above; conditions: chain copies: 2; blunt
[6] = target: T2, Omomyc (synthetic or recombinant) (UniProt P01106 365-454, E425T;E432I;R438Q;R439N); test: as above; conditions: chain copies: 2, blunt
[7] = target: MYC bHLH peptide (MYC/MYC) (UniProt P01106 365-454); test: as above; conditions: chain copies: 2, blunt
[8] = target: T2, Omomyc (synthetic or recombinant); test: fluorescence polarization; synthetic Omomyc; FP: 10 mM Tris-HCl, 50 mM KCl, 1 mM EDTA, 5 mM MgCl2, 10 mM DTT, 2 nM DNA stock mixed 20 ul + 20 ul protein, 30 min, pH and temperature not stated; pulldown: 50 mM Tris-HCl pH 7.5, 5% glycerol, 1.5 mM MgCl2, 150 mM NaCl, 1 mM DTT, IGEPAL, 4 C; conditions: chain copies: 2; blunt
[9] = target: T1, MAX bHLH peptide (MAX/MAX); test: fluorescence polarization; text: fails to bind; FP: 10 mM Tris-HCl, 50 mM KCl, 1 mM EDTA, 5 mM MgCl2, 10 mM DTT, 2 nM DNA stock mixed 20 ul + 20 ul protein, 30 min, pH and temperature not stated; pulldown: 50 mM Tris-HCl pH 7.5, 5% glycerol, 1.5 mM MgCl2, 150 mM NaCl, 1 mM DTT, IGEPAL, 4 C; conditions: chain copies: 2; label: 5'-FAM; blunt

CCCCCACCACGCGGTGCCTGA (double strand) [VEGFA-2 E box]
Kd (ME-47): 3110 nM

CCCCCACCACGTGGTGCCTGA (double strand) [E box DNA (FP probe)]
Kd (ME-47): 117 nM

CCCCCACCACCTGGTGCCTGA (double strand) [VEGFA-1 E box]
Kd (ME-47): 1080 nM

Omomyc (recombinant, bacterially expressed) (from UniProt P01106 369-421) (domain or fragment)
stoichiometry N [1]: 2 | stoichiometry N [2]: 2 | cellular thermal shift assay (CETSA) in Ramos cell lysates with 20 μM Omomyc: change in the aggregation temperature (Tagg) of Myc (destabilisation) [3]: 6 °C | cellular thermal shift assay (CETSA), isothermal dose-response fingerprint at 54°C in Ramos cell lysates: EC50 of Omomyc for thermal destabilisation of Myc [3]: 16000 nM

B1: E box DNA (FP probe) (dsDNA)
DNA 1: CCCCCACCACGTGGTGCCTGA
DNA 2: TCAGGCACCACGTGGTGGGGG
Kd [4]: 71.4 nM | Kd [5]: 258 nM | Kd [6]: 107 nM | Kd [7]: 159 nM | Kd [8]: ~22 nM

B2: VEGFA-2 E box (dsDNA)
DNA 1: CCCCCACCACGCGGTGCCTGA
DNA 2: TCAGGCACCGCGTGGTGGGGG
Kd ([4]; label: 5'-FAM): 451 nM | Kd ([6]; label: 5'-FAM): 99.2 nM | Kd ([7]; label: 5'-FAM): 111 nM | Kd [9]: 2020 nM

B3: VEGFA-1 E box (dsDNA)
DNA 1: CCCCCACCACCTGGTGCCTGA
DNA 2: TCAGGCACCAGGTGGTGGGGG
Kd ([4]; label: 5'-FAM): 397 nM | Kd ([6]; label: 5'-FAM): 103 nM | Kd ([7]; label: 5'-FAM): 140 nM | Kd [9]: 3390 nM
